Measurements: article PMC10143992, “Interkingdom Signaling of the Insect Pathogen Photorhabdus luminescens with Plants Via the LuxR solo SdiA” (Microorganisms, 2023)

Assays:
SdiA (6His-SdiA) = molecular target: T1, SdiA (6His-SdiA) (Photorhabdus laumondii, UniProt Q7N9K5); assay: nanoDSF thermal shift (intrinsic Trp fluorescence […] nm); assay type: binding; settings: 10 nM ligand; 0.3 mg/mL SdiA; 1.5 °C/min; versus solvent control
T1 construct: gene plu0320

[1] = test system: T2, SdiA (LuxR solo, 6His-SdiA) (Photorhabdus luminescens DJC), ORF:60ed44fe; assay: SPR; settings: SPR Biacore T200, SA chip, HBS-EP+ (10 mM HEPES pH 7.4, 150 mM NaCl, 3 mM EDTA, 0.005% Tween-20), SdiA 1.5625-200 nM, 30 uL/min, 1:1 fit; temperature not …
T2 sequence: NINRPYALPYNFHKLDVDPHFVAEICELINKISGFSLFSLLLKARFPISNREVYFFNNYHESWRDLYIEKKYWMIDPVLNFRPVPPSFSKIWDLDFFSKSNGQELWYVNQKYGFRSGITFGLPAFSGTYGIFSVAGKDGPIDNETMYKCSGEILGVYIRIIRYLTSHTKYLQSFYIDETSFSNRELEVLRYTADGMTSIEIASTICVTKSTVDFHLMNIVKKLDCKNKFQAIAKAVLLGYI

[2] = test system: SdiA (LuxR solo, 6His-SdiA) (Photorhabdus luminescens DJC); assay: SPR; settings: SPR Biacore T200, SA chip, HBS-EP+ (10 mM HEPES pH 7.4, 150 mM NaCl, 3 mM EDTA, 0.005% Tween-20), SdiA 1.5625-200 nM, 30 uL/min, 1:1 fit, temperature not …

T1 sequence (Q7N9K5 entry or part of it): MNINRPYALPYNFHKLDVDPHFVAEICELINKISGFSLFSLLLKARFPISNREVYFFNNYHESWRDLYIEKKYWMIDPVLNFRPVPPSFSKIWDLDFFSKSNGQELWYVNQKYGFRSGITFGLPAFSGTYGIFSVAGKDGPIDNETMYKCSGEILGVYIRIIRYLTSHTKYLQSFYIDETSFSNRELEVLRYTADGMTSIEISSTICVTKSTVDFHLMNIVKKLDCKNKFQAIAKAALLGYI

CCCCCCCCCCCC(=O)N[C@H]1CCOC1=O [C12-AHL]
DTM (SdiA (6His-SdiA)): +1.6 °C

GACACCTCTTTACATATTTAAACTATTTATTGGGAATCGAAAGGTTATTTTGCTTACTCATTATTATTCTAATAACTTTCTTTTTATATAATTAACTATTAAAGTTGAAACAGCTACTGGGATAAATCATAGTTTATATGGGAAAATTACTCATATATTTATTAGGTATTGCTTCATATAG (double strand) [PaidA promoter fragment]
Kd [1]: 4.4 nM

CCCC(=O)N[C@H]1CCOC1=O [C4-AHL]
DTM (SdiA (6His-SdiA)): −3.9 °C

PsdiA promoter fragment
Kd ([2]; 3.3% (v/v) plant root exudate (PRE), ka 1.8e5 /M/s, kd 2.0e-2 /s): 109 nM | Kd ([2]; no ligand, ka 1.1e5 /M/s, kd 3.1e-3 /s): 27.4 nM

PaidA promoter fragment
Kd ([2]; 3.3% (v/v) plant root exudate (PRE), ka 8.2e4 /M/s, kd 1.1e-3 /s): 13.3 nM | Kd ([2]; no ligand, ka 3.9e5 /M/s, kd printed 1.7 x 103 /s (1.7e-3 from Kd)): 4.4 nM

GTCATTATTCGCTGTTCACTCATCTTTTAATGGCACAATAAGCCCTGACTTTTTACTTTAATTACCCGCTTTAGATCGAGAGGGCTATGTTAGGGTGGCAGTCTAAAAATATGCCGTATATTACTTTGGGTTAATATGGCATTGAATGGCGTAGGTTATAGGGTGGTTTAACACGAGGTTTTT (double strand) [PfliE promoter fragment]
binding [1]: no binding
